Measurements taken from the NTF2 design screens of Basanta et al. (2020).

Assay: protease stability score; higher = more stable; yeast display proteolysis, trypsin and chymotrypsin;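 also: relative to predicted unfolded state with 0 unfolded-like and 1 meaning tenfold more protease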

Sequence	protease stability score
DDREKETQEFFERWVEAFITGDEHDLHEMLDPHARIHLIIGDKKEDLHGRESAVEVMKRIDHKHEFRIRHLWIFDGRIHVDVKLTGHFDGRTYQHDVHINIKIVDGKIHSIQIEWR	2.22
DEEEEATEKFFEKLLRSWKTGDEKSYEELLDPHARSDINGKIFHGRDKLSQMLHEFLKRVKGITIHDVKVHDSRLIDGRAILDGRVDMKVGDKRFELNREVVTLKVDGRWILESEIVK	0.767
TEFEQEVERMIRMWRHLYETGDEKTLSHLVDPNVRVIVDGKHIHGREQVVNEIRRAHIVDDFEIRLEDTKYFEGRAVFTGIIREHGHVDGRTVHKSTKVEIDVVKVDGQWLIHRINFH	1.54
SEEYENAEKLTHHLTEILQTGDEQKLHELVDPHVKIHVDGVELHGMERYQELVDHWRIDSHTLHDFKIIGDKARVDSRVILTIGDKKERISLRFILVKIDGQWLNHEVEFN	1.79
DEEKEDIERYNRLYFNASTTGDEDTLKRLADPHVRIHVGDKDQVGMEHLSTRLLELRIEVEFDHRHIEVQGDKVTVDGTLTLHIEIGEKRYERRVDLILHWHKIDGRWLIEQVDML	1.27
SEEEDESEEMARLFVKANITGDEKFLYHMADPHVRIHIHQGNKYIELHGREKLEYWLKEWLEKFKNIRYTINDMKVVGEKVTIESTLQIGDKRIHMQIVIVVINGRIHKFEFHLH	0.755
NEEKRDSDILRRHLLEVLDTGDWDRMHELADPNAKTHFNGRDHHGREDMTHLFRELGVKHQELRSVHLQGNYVEITIHVSVDGRHVHLRFFMVKIDGKWRIRHMEIEWL	1.14
SDRRELLERLAELFLHWWLTGDWKAISDNADPNVRLDIQQGDKHIHDIGRERTEEVLRKIFERFKNLKIEIKRFDMQGDKLHVDSRVTFDGVEFNMEIHNLVVDGRIREIYVHLH	1.54
SQEEEIVLHISQRLLRALSTGNEKEFEELLDPNARVSEIQGDKSYSHHGREEFLIFMREWFEKMGIKHFHIEHIDVQGNWVRVRGRITFNGREHDVNILILVIDGRVRSFTIEIK	1.57
DEETRMSEHAERLLIRSIRTGDFEEITRLADPHVRVHIGDKDIHGRESLSEVLEKTMRKFGVDNVDYKIEDSHTYDGRIDIRGRLEVNGVKREVRFHSLKIDGRWLLTHVEMD	-0.04
DERTKEDEKWAKLFLEWHKTGNEEAFSHFADPHTRNTINGVELIGRESLMEFSKRWIEELRFKQLHIRDFKVVNGRVHIDSELHGIINGQEISTTVKIHIDIINGQTKSVEVRIL	1.17
DEDEDIVRRHLHKLSKAWRTGDEETEKKLADPHARIQIGDKTDHGMEKMTKDWHEFLREMRVEIRIEDTRVQGDKVVNHIHIHSDIDGKEIILHSRIIVRKIDGRWHIESFVLI	0.475
DKEEHDVHNMWQHLVEVLLTGNEEAIHENLDPDAKLEVGDKRYHGRELVSEVWSRLGINVIQLDDMRPIGNKVHVETTTHFNGKTLEMRIDAHKVNGRWLSESLIIR	0.951
SEDEEHAELALRLWEIVEKTGDETEARKMFDPHTRIIIDGRDLIGWSFIRHLMRRFDHVDIDHKREKRREFQGEKVRMDIEVDMEFVVGEKIYRIDFRVNIVLLKVNGKWRIHSLEIK	2.47
DEEKRFHHKLLRLFLESFLTGDWRLWYKLADPNARFHAPNHESHGREEVVEMIFKWLKQYDHVEIRIHDVRYYNGQIRMDVELHFRQGDKETSTKLDLILIVVDGRITEVHFDVR	0.916
SEEDHDRELWISLLKKEAETGDERQVRENLDPNVQLDVGDKTFHGREIVLDHIHEEWKRLGLDRIKLFVDSIRIQGDKVRLDGSLDVNGKEIRVNIFLRKINGRWHIEFIHID	0.666
DEDKEWAHRILEHFLDNLRTGNEERLEELADPNTRVVIDGQEEHGMHVFNTLHKELRIDRIHLTSWDIQGDKLHLDVRVDGTFNGQREVTRVHIYFRVVNGRVKDIQIHVI	1.8
DEDEEDAHRAVQKLTEVINTGDWETFEKFADPNTRFEYGNFHIHGREVIRHFWLHEVEKFKNITIFIRHVQVINGRVESHGENRFNGKSYHFHIIFRKFNGRWHLERIHLE	1.61
DSEEKWDREFVKDFVHNEKTGDEERLKELMDPHAILLIDINGREIRHHGREAMTEEVDRFLKHAGVDHMDIHDVKIQGDKVRVDIRIEIGDKRQKSHIIIEKINGQWRVTQIHIHVE	0.989
SEEEEQSRIAIELVKEVHDTGDEHLLKRLMDPNAKVDIGDKTHHGREIFSHLVHRWFHTLGVDHVKIHDLDFQGDFMIIHMVEVIGDKHVHVHIYTLKVNGRWYIRHLRVERR	0.967
